B1: Protein PALS1 (Homo sapiens), Q8N3R9 (parent)
chain: MTTSHMNGHVTEESDSEVKNVDLASPEEHQKHREMAVDCPGDLGTRMMPIRRSAQLERIRQQQEDMRRRREEEGKKQELDLNSSMRLKKLAQIPPKTGIDNPMFDTEEGIVLESPHYAVKILEIEDLFSSLKHIQHTLVDSQSQEDISLLLQLVQNKDFQNAFKIHNAITVHMNKASPPFPLISNAQDLAQEVQTVLKPVHHKEGQELTALLNTPHIQALLLAHDKVAEQEMQLEPITDERVYESIGQYGGETVKIVRIEKARDIPLGATVRNEMDSVIISRIVKGGAAEKSGLLHEGDEVLEINGIEIRGKDVNEVFDLLSDMHGTLTFVLIPSQQIKPPPAKETVIHVKAHFDYDPSDDPYVPCRELGLSFQKGDILHVISQEDPNWWQAYREGDEDNQPLAGLVPGKSFQQQREAMKQTIEEDKEPEKSGKLWCAKKNKKKRKKVLYNANKNDDYDNEEILTYEEMSLYHQPANRKRPIILIGPQNCGQNELRQRLMNKEKDRFASAVPHTTRSRRDQEVAGRDYHFVSRQAFEADIAAGKFIEHGEFEKNLYGTSIDSVRQVINSGKICLLSLRTQSLKTLRNSDLKPYIIFIAPPSQERLRALLAKEGKNPKPEELREIIEKTREMEQNNGHYFDTAIVNSDLDKAYQELLRLINKLDTEPQWVPSTWLR
partner: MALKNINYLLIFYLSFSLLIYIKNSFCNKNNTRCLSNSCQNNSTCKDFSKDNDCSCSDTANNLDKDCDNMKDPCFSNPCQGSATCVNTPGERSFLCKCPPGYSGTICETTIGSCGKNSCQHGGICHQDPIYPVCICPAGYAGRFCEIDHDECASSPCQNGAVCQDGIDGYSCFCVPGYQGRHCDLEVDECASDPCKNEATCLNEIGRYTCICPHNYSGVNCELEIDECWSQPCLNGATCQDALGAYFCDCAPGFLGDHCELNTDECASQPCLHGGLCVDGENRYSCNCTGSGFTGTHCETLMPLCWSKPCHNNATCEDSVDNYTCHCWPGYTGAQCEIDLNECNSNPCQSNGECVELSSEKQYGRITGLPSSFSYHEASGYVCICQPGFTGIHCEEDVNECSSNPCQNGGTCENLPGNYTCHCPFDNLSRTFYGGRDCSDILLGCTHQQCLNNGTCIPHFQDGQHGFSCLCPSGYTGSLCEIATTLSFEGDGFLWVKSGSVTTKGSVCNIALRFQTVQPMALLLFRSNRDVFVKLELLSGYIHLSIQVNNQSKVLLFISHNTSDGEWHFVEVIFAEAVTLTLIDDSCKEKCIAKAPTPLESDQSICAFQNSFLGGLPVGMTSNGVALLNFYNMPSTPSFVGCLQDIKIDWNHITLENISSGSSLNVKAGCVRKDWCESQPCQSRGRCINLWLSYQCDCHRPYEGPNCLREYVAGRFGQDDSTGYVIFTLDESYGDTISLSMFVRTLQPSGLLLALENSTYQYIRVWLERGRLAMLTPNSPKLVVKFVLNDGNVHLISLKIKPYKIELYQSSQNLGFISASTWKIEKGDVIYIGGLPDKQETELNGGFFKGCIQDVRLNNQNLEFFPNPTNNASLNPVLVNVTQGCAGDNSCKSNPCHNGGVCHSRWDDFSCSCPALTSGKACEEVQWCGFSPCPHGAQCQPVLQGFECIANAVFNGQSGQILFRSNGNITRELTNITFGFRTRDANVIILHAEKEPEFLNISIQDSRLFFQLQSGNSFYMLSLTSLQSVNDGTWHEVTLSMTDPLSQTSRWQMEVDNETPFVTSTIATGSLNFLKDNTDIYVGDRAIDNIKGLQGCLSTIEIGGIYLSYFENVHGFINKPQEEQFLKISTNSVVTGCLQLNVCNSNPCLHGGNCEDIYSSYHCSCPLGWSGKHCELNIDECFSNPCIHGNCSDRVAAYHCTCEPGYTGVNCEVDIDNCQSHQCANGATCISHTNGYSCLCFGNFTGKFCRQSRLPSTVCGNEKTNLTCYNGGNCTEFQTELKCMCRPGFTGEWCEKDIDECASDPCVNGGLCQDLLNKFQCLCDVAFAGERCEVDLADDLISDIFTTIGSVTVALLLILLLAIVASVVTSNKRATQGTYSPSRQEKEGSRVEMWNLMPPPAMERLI

Variants of: B1
Settings: with crum1_human CRB1, P82279

Variant | effect of a mutation on the interaction
F318W | decreasing interaction strength

From IntAct's records for PubMed 33758649
